How the values were obtained:
[1] = molecular target: recombinant human CTLA-4 protein (human) (UniProt P16410); assay: SPR (Pioneer FE, OneStep), 25 C; 3xFLAG scFv captured by anti-FLAG M2, human CTLA-4 as analyte
[2] = molecular target: recombinant mouse CTLA-4 protein (mouse) (UniProt P09793); assay: SPR (Pioneer FE, OneStep), 25 C; 3xFLAG scFv captured by anti-FLAG M2, mouse CTLA-4 as analyte
Chain of recombinant mouse CTLA-4 protein (mouse) (P09793 36-161 limits assumed): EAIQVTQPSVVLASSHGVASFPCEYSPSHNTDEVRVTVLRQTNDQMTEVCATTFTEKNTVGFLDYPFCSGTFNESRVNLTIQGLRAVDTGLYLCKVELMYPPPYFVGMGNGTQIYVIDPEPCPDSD

Chain of recombinant human CTLA-4 protein (human) (P16410 36-161 limits assumed): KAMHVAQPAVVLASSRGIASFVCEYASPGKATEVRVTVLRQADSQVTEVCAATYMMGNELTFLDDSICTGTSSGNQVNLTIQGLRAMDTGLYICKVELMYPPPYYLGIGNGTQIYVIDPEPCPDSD

| Binder | Kd [1] [pM] | Kd [2] [pM] |
| --- | --- | --- |
| 78-8D10 scFv (scFv, part only; not given: Linker, domain order, 3xFLAG tag, V domains shown, not shown: another chain or arm of the molecule; small tags and cut ends) VH: MEVQLVESGGGLVQPGGSLRLSCAASGFTFSSYVMHWVRQAPGKGLEWVSAISWSGRGTYYADSVKGRFTISRDNSKNTLYLQMNSLRAEDTAVYYCARGRLFGLALYGEAFDVWGQGTLVTVSS VL: DIQMTQSPSSLSASVGDRVTITCQASKDISNYLNWYQQKPGKAPKLLIYDASNLETGVPSRFSGSGSGTDFTFTISSLQPEDIATYYCQQFNSFPLTFGQGTKVEIK | 580 | 490 |
| 78-24D9 scFv (scFv, part only; not given: Linker, domain order, 3xFLAG tag, V domains shown, not shown: another chain or arm of the molecule; small tags and cut ends) VH: EVQLVESGGGLVQPGGSLRLSCAASGFTFSSSSMHWVRQAPGKGLEWVSGISGWGGSTSYADSVKGRFTISRDNSKNTLYLQMNSLRAEDTAVYYCARYLMSFNLTRTGWFDVWGQGTLVTVSS VL: DIQMTQSPSSLSASVGDRVTITCQASQDIANYLNWYQQKPGKAPKLLIYDASNLETGVPSRFSGSGSGTDFTFTISSLQPEDIATYYCQQSDAWPWTFGQGTKVEIK | 1180 | 1110 |
| 78-8D2 scFv (scFv, part only; not given: Linker, domain order, 3xFLAG tag, V domains shown, not shown: another chain or arm of the molecule; small tags and cut ends) VH: EVQLVESGGGLVQPGGSLRLSCAASGFTFSSYVMHWVRQAPGKGLEWVSAITWSGRGTYYADSVKGRFTISRDNSKNTLYLQMNSLRAEDTAVYYCARGRLFGLALYGEAFDVWGQGTLVTVSS VL: DIQMTQSPSSLSASVGDRVTITCQASKDISNYLNWYQQKPGKAPKLLIYDASNLETGVPSRFSGSGSGTDFTFIISSLQPEDIATYYCQQFNSFPLTFGQGTKVEIK | 370 | 300 |
| 78-8D5 scFv (scFv, part only; not given: Linker, domain order, 3xFLAG tag, V domains shown, not shown: another chain or arm of the molecule; small tags and cut ends) VH: EVQLVESGGGLVQPGGSLRLSCAASGFTFSSYVMHWVRQAPGKGLEWVSAISWSGGGTYYADSVKGRFTISRDNSKNTLYLQMNSLRAEDTAVYYCARGRLFGLALYGEAFDVWGQGTLVTVSS VL: DIQMTQSPSSLSASVGDRVTITCQASKDISNYLNWYQQKPGKAPKLLIYDASNLETGVPSRFSGSGSGTDFTFTISSLQPEDIATYYCQQFNSFPLTFGQGTKVEIK | 740 | 420 |
| 78-8D4 scFv (scFv, part only; not given: Linker, domain order, 3xFLAG tag, V domains shown, not shown: another chain or arm of the molecule; small tags and cut ends) VH: EVQLVESGGGLVQPGGSLRLSCAASGFTFSSYVMHWVRQAPGKGLEWVSAITWSGGGTYYADSVKGRFTISRDNSKNTLYLQMNSLRAEDTAVYYCARGRLFGLVRYGEAFDVWGQGTLVTVSS VL: DIQMTQSPSSLSASVGDRVTITCQASKDISNYLNWYQQKPGKAPKLLIYDASNLETGVPSRFSGSGSGTDFTFTISSLQPEDIATYYCQQFNSFPLTFGQGTKVEIK | 210 | 200 |
| 78-8D22 scFv (scFv, part only; not given: Linker, domain order, 3xFLAG tag, V domains shown, not shown: another chain or arm of the molecule; small tags and cut ends) VH: EVQLVESGGGLVQPGGSLRLSCAASGFTFSSYVMHWVRQAPGKGLEWVSAISWSGSGTYYADSVKGRFTISRDNSKNTLYLQMNSLRAEDTAVYYCARGRLFGLARYGEAFDVWGQGTLVTVSS VL: DIQMTQSPSSLSASVGDRVTITCQASKDISNYLNWYQQKPGKAPKLLIYDASNLETGVPSRFSGSGSGTDFTFTISSLQPEDIATYYCQQFNSFALTFGQGTKVEIK | 160 | 370 |
| 78-28 scFv (scFv, part only; not given: Linker, domain order, 3xFLAG tag, V domains shown, not shown: another chain or arm of the molecule; small tags and cut ends) VH: EVQLVESGGGLVQPGGSLRLSCAASGFTFSSYYMHWVRQAPGKGLEWVSAIYGNGGYTYYADSVKGRFTISRDNSKNTLYLQMNSLRAEDTAVYYCARGRPARHQVGFDVWGQGTLVTVSS VL: DIQMTQSPSSLSASVGDRVTITCQASLDISNYLNWYQQKPGKAPKLLIYDASNLETGVPSRFSGSGSGTDFTFTISSLQPEDIATYYCQQLYTVPLTFGQGTKVEIK |  | 2570 |
| 78-8D7 scFv (scFv, part only; not given: Linker, domain order, 3xFLAG tag, V domains shown, not shown: another chain or arm of the molecule; small tags and cut ends) VH: EVQLVESGGGLVQPGGSLRLSCAASGFTFSSYVMHWVRQAPGKGLEWVSAISWSGAGTYYADSVKGRFTISRDNSKNTLYLQMNSLRAEDTAVYYCARGRLFGRALYGEAFDVWGQGTLVTVSS VL: DIQMTQSPSSLSASVGDRVTITCQASKDISIYLNWYQQKPGKAPKLLIYDAFNLETGVSSRFSGSGSGTDFTFTISSLQPEDIATYYCQQFNSFPLTFGQGTKVEIK | 300 | 390 |
| 78-36 scFv (scFv, part only; not given: Linker, domain order, 3xFLAG tag, V domains shown, not shown: another chain or arm of the molecule; small tags and cut ends) VH: MEVQLVESGGGLVQPGGSLRLSCVASGFTFSSYYMHWVRQAPGKGLEWVSAISGSGGSTYYADSVKGRFTISRDNSKNTLYLQMNSLRAEDTAVYYCARGRQVGKSSFGEAFDVWGQGTLVTVSS VL: DIQMTQSPSSLSASVGDRVTITCQASQDISNYLNWYQQKPGKAPKLLIYDASNLETGVPSRFSGSGSGTDFTFTISSLQPEDIATYYCQQFTSFPYTFGQGTKVEIK |  | 980 |
| 78-24D17 scFv (scFv, part only; not given: Linker, domain order, 3xFLAG tag, V domains shown, not shown: another chain or arm of the molecule; small tags and cut ends) VH: EVQLVESGGGLVQPGGSLRLSCAASGFTFSSSSMHWVRQAPGKGLEWVSGISGSGGSTSYADSVKGRFTISRDNSKNTLYLQMNSLRAEDTAVYYCARYLMSFNLTRTSWFDVWGQGTLVTVSS VL: DIQMTQSPSSLSASVGDRVTITCQASQAISNYLNWYQQKPGKAPKLLIYDASNLETGVPSRFSGSGSGTDFTFTISSLQPEDIATYYCQQGDAWPWTFGQGTKVEIK | 870 | 1060 |

Stronger by Kd [2], values ahead:

| Kd [1] [pM] | Kd [2] [pM] | Binder |
| --- | --- | --- |
| 320 | 170 | 78-8D14 scFv (scFv, part only; not given: Linker, domain order, 3xFLAG tag, V domains shown, not shown: another chain or arm of the molecule; small tags and cut ends) VH: EVQLVESGGGLVQPGGSLRLSCAASGFTFSSYVMHWVRQAPGKGLEWVSAISWSGRGTYYADSVKGRFTISRDNSKNTLYLQMNSLRAEDTAVYYCARGRLFGLARYGEAFDVWGQGTLVTVSS VL: DIQMTQSPSSLSASVGDRVTITCQASRDISNYLNWYQQKPGKAPKLLIYDASNLETGVPSRFSGSGSGTDFTFTISSLQPEDIATYYCQQFNSFPLTFGQGTKVEIK |
| 240 | 190 | 78-8D6 scFv (scFv, part only; not given: Linker, domain order, 3xFLAG tag, V domains shown, not shown: another chain or arm of the molecule; small tags and cut ends) VH: EVQLVESGGGLVQPGGSLRLSCVASGFTFSSYVMHWVRQAPGKGLEWVSAISWSGGGTYYADSVKGRFTISRDNSKNTLYLQMNSLRAEDTAVYYCARGRLFGLALYGEAFDVWGQGTLVTVSS VL: DIQMTQSPSSLSASVGDRVTITCQASKDISNYLNWYQQKPGKAPKLLIYNASNLETGVPSRFSGSGSGTDFTFTISSLQPEDIATYYCQQFNSFPLTFGQGTKVEIK |
| 1460 | 10 | 78-24D8 scFv (scFv, part only; not given: Linker, domain order, 3xFLAG tag, V domains shown, not shown: another chain or arm of the molecule; small tags and cut ends) VH: EVQLVKSGGGLVQPGGSLRLSCAASGFTFSSYSMHWVRQAPGKGLEWVSGISGSGRSTSYADSVKGRFTISRDNSKNTLYLQMNSLRAEDTAVYYCARDLMAFNLTRTGGFDVWGQGTLVTVSS VL: DIQMTQSPSSLSASVGDRVTITCQASQDISNYLNWYQQKPGKAPKLLIYDASNLETGVPSRFSGSGSGTDFTFTINSLQPEDIATYYCQQGDAWPWTFGQGTKVEIK |
| 1150 | 59 | 78-24D1 scFv (scFv, part only; not given: Linker, domain order, 3xFLAG tag, V domains shown, not shown: another chain or arm of the molecule; small tags and cut ends) VH: EVQLVESGGGLVQPGGSLRLSCAASGFTFTSYSMHWVRQAPGKGLEWVSGISGSGRSTSYADSVKGRFTISRDNSKNTLYLQMNSLRAEDTAVYYCARDLMAFNLTRAGGFDVWGQGTLVTVSS VL: DIQMTQSPSSLSASVGDRVTITCQASQDISNFLNWYQQKPGKAPKLLIYDASNLETGVPSRFSGSGSGTDFTFTISSLQPEDIATYYCQQGDAWPWTFGQGTKVEIK |
| 168000 | 60 | 78-8 scFv (scFv, part only; not given: Linker, domain order, 3xFLAG tag, V domains shown, not shown: another chain or arm of the molecule; small tags and cut ends) VH: EVQLVESGGGLVQPGGSLRLSCAASGFTFSSYVMHWVRQAPGKGLEWVSAISGSGGGTYYADSVKGRFTISRDNSKNTLYLQMNSLRAEDTAVYYCARGRLIGLALYGEAFDVWGQGTLVTVSS VL: DIQMTQSPSSLSASVGDRVTITCQASKDISNYLNWYQQKPGKAPKLLIYDASNLETGVPSRFSGSGSGTDFTFTISSLQPEDIATYYCQQFNSFPLTFGQGTKVEIK |
| 2880 | 10 | 78-24D12 scFv (scFv, part only; not given: Linker, domain order, 3xFLAG tag, V domains shown, not shown: another chain or arm of the molecule; small tags and cut ends) VH: EVQLVESGGGLVQPGGSLRLSCAASGFTFSSYSMHWVRQAPGKGLEWVSGISGSGLSTSYADSVKGRFTISRDNSKNTLYLQMNSLRAEDTAVYYCARDLMAFNLTRTGGFDVWGQGTLVTVSS VL: DIQMTQSPSSLSASVGDRVTITCQASHDILNYLNWYQQKPGKAPKLLIYDASNLETGVPSRFSGSGSGTDFTFTISSLQPEDIATYYCQQGHAWLWTFGQGTKVEIK |

— patent publication US20240084011A1
